Results published in patent US20090053180A1, “Tandem cardiac pacemaker system” (priority 2005, published 2009).
Entries after “also recorded” stand apart in the source; their conditions may differ.

How the values were obtained:
[1] = system: cell-free patches from Xenopus oocytes; conditions: cited from earlier work
[2] = system: canine proximal LV conducting system; conditions: sinus rhythm suppressed by vagal stimulation; cited from earlier work
[3] = system: dogs with complete AV block; assay: Tandem biological and electronic pacemakers in dogs with complete AV block (injection into left bundle branch); type: in vivo, dog
Method: Adult mongrel dogs weighing 22-25 kg were anesthetized with propofol 6 mg/kg IV and inhalational isoflurane (1.5%-2.5%). Using a steerable catheter, saline (n=5), AdmHCN2 (n=6) or AdmE324A (n=4) were injected into the left bundle branch (LBB) as described previously (Plotnikov et al., 2004). In 2 additional dogs AdmE324A was injected into the LV septal myocardium as an internal control. Complete AV block was induced via radiofrequency ablation and each site of injection was paced via catheter electrode to distinguish electrocardiographically the origin of the idioventricular rhythm during the follow up period.
An electronic pacemaker (Discovery II, Flextend lead; Guidant, Indianapolis, Ind.) was implanted and set at VVI 45 bpm. ECG, 24 hour Holter monitoring, pacemaker log record check, and overdrive pacing at 80 bpm were performed daily for 14 days. To evaluate beta-adrenergic responsiveness, on day 14, epinephrine (1.0, 1.5 and 2.0 μg/kg/min for up to 10 min each) was infused to an endpoint of a 50% increase in idioventricular rate or ventricular arrhythmia (single ventricular premature beats having a morphology other than that of the dominant idioventricular rhythm or ventricular tachycardia), whichever occurred first. If none of the above responses was observed within 10 min after onset of the maximal dose of 2 μg/kg/min, the infusion was terminated.
Data are presented as means±SEM. […] One-way ANOVA was used to evaluate the effect of an implanted construct on electrophysiological parameters. Subsequent analysis was performed using Bonferroni's test where equal variances were assumed and the Games-Howell test where variances were unequal. A two-way contingency table analysis was conducted to evaluate whether epinephrine had different effects across three groups. Data were analyzed using SPSS for Windows software (SPSS, Inc.). P<0.05 was considered to be significant.
Complete AV block was induced via radiofrequency ablation, and electronic pacemakers were implanted into the right ventricular apical endocardium and set a VV1 45 bpm. ECG and 24-h monitoring were performed daily for 14 days. Beta-adrenergic responsiveness was also evaluated as described above.
Escape time was evaluated daily by performing three 30-s periods of ventricular overdrive pacing at 80 bpm followed by an abrupt cessation of pacing. The average time between the final electronically paced beat and the first intrinsic beat was then determined. […] There was a different result with regard to basal heart rates throughout the 14-day period, however.

Xenopus oocytes = assay: Two-microelectrode voltage clamp of expressed HCN current in Xenopus oocytes; type: cell-based, Xenopus laevis
[4] = system: newborn rat ventricular myocytes; assay: Whole-cell voltage clamp of expressed HCN current in newborn rat ventricular myocytes; type: cell-based; conditions: for V1/2 / s: fit of average data; for current density: measured at −135 mV
Method: Adult rats were anesthetized with ketamine-xylazine before cardiectomy, and neonatal rats decapitated. Newborn rat ventricular myocyte cultures were prepared as previously described (Protas and Robinson, 1999). Briefly, 1-2-day-old Wistar rats were euthanized, hearts were quickly removed and ventricles were dissociated using a standard trypsinization procedure. Myocytes were harvested, preplated to reduce fibroblast proliferation, cultured initially in serum-containing medium (except when being transfected with plasmids as described below), and then incubated in serum free medium (SFM) at 37° C., 5% CO2 after 24 h. Action potential studies were conducted on 4-day-old monolayer cultures plated directly onto fibronectin-coated 9×22 mm glass coverslips. For voltage clamp experiments, 4-6 day old monolayer cultures were resuspended by brief (2-3 min) exposure to 0.25% trypsin, then replated onto fibronectin-coated coverslips and studied within 2-8 h.
Adenoviral infection of the newborn ventricular myocytes was performed on cell monolayer cultures 4 days after initial plating. Cells were exposed to a virus-containing mix (m.o.i. 20, in 250 μl of culture medium) for 2 h, rinsed twice and incubated in SFM at 37° C., 5% CO2 for 24-48 hours prior to the cells being resuspended as described above for electrophysiological study.
The whole-cell patch clamp technique was employed to record mHCN2 current from cultured myocytes. Experiments were carried out on cells superfused at 35° C. The external solution contained (mM): NaCl, 140; NaOH, 2.3; MgCl2, 1; KCl, 10; CaCl2, 1; HEPES, 5; glucose, 10; pH 7.4. MnCl2 (2 mM) and BaCl2 (4 mM) were added to block other currents. The pipette solution contained (mM): aspartic acid, 130; KOH, 146; NaCl, 10; CaCl2, 2; EGTA-KOH, 5; Mg-ATP, 2; HEPES-KOH, 10; pH 7.2.
To measure the HCN activation curve, a standard two-step protocol was employed. Hyperpolarizing steps from −25 to −135 mV for mHCN2 and from −5 or −15 to −135 mV for mE324A were applied from a holding potential of −10 mV, followed by a tail current step (to −125 or −135 mV). The duration of test steps was longer at less hyperpolarized potential for mHCN2 channels, to more closely approach steady-state activation at all voltages. The normalized plot of tail current versus test voltage was fit with a Boltzmann function and then the voltage of half maximum activation (V1/2) and slope factor(s) were defined from the fitting. Activation kinetics were determined from the same traces, while deactivation kinetics were determined from traces recorded at each test potential after achieving full activation by a prepulse to −135 mV. Time constants were then obtained by fitting the early time course of activation or deactivation current traces with a monoexponential function; the initial delay and any late slow activation or deactivation phase were ignored (Qu et al., 2001; Altomare et al., 2001). Current densities are expressed as the value of the time-dependent component of current amplitude, measured at the end of the test potential and normalized to cell membrane capacitance. Records were not corrected for liquid junction potential, which was previously determined to be 9.8 mV under these conditions (Qu et al., 2001).

[5] = 10 μM cAMP in the pipette solution

B1: mHCN2: mouse HCN2 pacemaker ion channel (GenBank AJ225122), expressed from plasmid, cRNA or adenoviral construct AdmHCN2 (protein, UniProt O88703 1-863, looked up)
Potassium/sodium …: MDARGGGGRPGDSPGTTPAPGPPPPPPPPAPPQPQPPPAPPPNPTTPSHPESADEPGPRARLCSRDSACTPGAAKGGANGECGRGEPQCSPEGPARGPKVSFSCRGAASGPSAAEEAGSEEAGPAGEPRGSQASFLQRQFGALLQPGVNKFSLRMFGSQKAVEREQERVKSAGAWIIHPYSDFRFYWDFTMLLFMVGNLIIIPVGITFFKDETTAPWIVFNVVSDTFFLMDLVLNFRTGIVIEDNTEIILDPEKIKKKYLRTWFVVDFVSSIPVDYIFLIVEKGIDSEVYKTARALRIVRFTKILSLLRLLRLSRLIRYIHQWEEIFHMTYDLASAVMRICNLISMMLLLCHWDGCLQFLVPMLQDFPSDCWVSINNMVNHSWSELYSFALFKAMSHMLCIGYGRQAPESMTDIWLTMLSMIVGATCYAMFIGHATALIQSLDSSRRQYQEKYKQVEQYMSFHKLPADFRQKIHDYYEHRYQGKMFDEDSILGELNGPLREEIVNFNCRKLVASMPLFANADPNFVTAMLTKLKFEVFQPGDYIIREGTIGKKMYFIQHGVVSVLTKGNKEMKLSDGSYFGEICLLTRGRRTASVRADTYCRLYSLSVDNFNEVLEEYPMMRRAFETVAIDRLDRIGKKNSILLHKVQHDLSSGVFNNQENAIIQEIVKYDREMVQQAELGQRVGLFPPPPPPQVTSAIATLQQAVAMSFCPQVARPLVGPLALGSPRLVRRAPPGPLPPAASPGPPAASPPAAPSSPRAPRTSPYGVPGSPATRVGPALPARRLSRASRPLSASQPSLPHGVPAPSPAASARPASSSTPRLGPAPTARTAAPSPDRRDSASPGAASGLDPLDSARSRLSSNL
- shift of activation curve to more positive potentials by cAMP [1]: 17 mV
- rate of idioventricular rhythms [2]: 50-60 bpm
- share of animals with 50% or more increase that required the highest dose of epinephrine ([3]; 2 μg/kg/min): 33%
- beats triggered by the electronic pacemaker, of all beats ([3]; 14 days, electronic pacemaker set at VVI 45 bpm): 26±6%
- arrhythmias during epinephrine infusion ([3]; day 14): two animals developed ventricular arrhythmias
- mean basal heart rate compared with saline group ([3]; days 1-7 and 8-14): significantly faster
- animals with less than a 50% increase in rate ([3]; epinephrine 1.0, 1.5, 2.0 μg/kg/min, day 14): 50%
- control rate prior to epinephrine ([3]; representative animal, day 14): 44 bpm
- rate with epinephrine ([3]; representative animal, epinephrine 1 μg/kg/min): 60 bpm
- activation more negative than mE324A (Xenopus oocytes): 35 mV
- effect of Cs+ on inward current (Xenopus oocytes; 5 mM Cs+): blocked; also recorded: large inhibition
- shift of V1/2 by cAMP [4, 5]: 9.7 mV
- percentage of myocytes expressing current ([4]; 6 matched cell cultures): 74.5%
- midpoint of activation ([4]; HCN2 virus characterized in neonatal rat myocytes): −69.3 mV
- activation τ ([4]; at −65 mV): 639 ± 72 ms
- V1/2 [4, 5]: −59.9 mV
- s [4, 5]: 11.0 mV
- V1/2 ([4]; absence of cAMP): −69.6 mV
- s ([4]; absence of cAMP): 10.8 mV
- slope factor s ([4]; mean of individual Boltzmann fits): 10.7±0.5 mV
- V1/2 (voltage of half maximum activation) ([4]; mean of individual Boltzmann fits, adenoviral infection): −66.1±1.5 mV
- current density [4]: 53.5±8.7 pA/pF
- current density ([4]; listed as HCN2): 53.5±8.3 pA/pF
